In publication PMC10651883, “M. mazei glutamine synthetase and glutamine synthetase-GlnK1 structures reveal enzyme regulation by oligomer modulation” (Nature Communications, 2023):
Substitutions are numbered along the chain they refer to. Names may count otherwise.

Columns and labels:
Mm GS = biological target: T1, Mm GS (Methanosarcina mazei, UniProt Q8PY99); assay: cryo-EM structure, […] A; format: binding; details: formed in situ from ATP; with Met-Sox-P; 5 mM MgCl2, pH 7.5; active site
T1 construct: gene glnA1; labile dodecamer (two hexamer rings), active site between two subunits; catalytic residues Asp57, Glu307

[1] = biological target: the molecule itself; assay: mass photometry; protein at 75 nM final, 20 mM Tris pH 7.5, 150 mM NaCl, room temperature; Refeyn OneMP; four measurements
[2] = biological target: the molecule itself; assay: cryo-EM structure; apo Mm GS at ~20 uM (1.0 mg/mL), 12.5 mM Tris pH 7.5, 5 mM MgCl2, 150 mM NaCl, 2.5% glycerol, 1 mM bME; dodecamer and partial oligomer from one dataset
[3] = biological target: the molecule itself; assay: crystal structure; Mm GS(R167L-A168G), 35% PEG 200, 0.1 M sodium citrate pH 5.5; three subunits in the asymmetric unit, symmetry generates the dodecamer
[4] = biological target: the molecule itself; assay: crystal structure; Mm GS-GlnK1 complex formed by mixing ~2:1 (excess GlnK1) and SEC; 30% PEG 400, 0.1 M sodium cacodylate pH 6.5, 0.1 M LiSO4
[5] = biological target: T2, Methanosarcina mazei glutamine synthetase (Methanosarcina mazei), Q8PY99; assay: fluorescence polarisation; apparent; GS titrated to saturation into 1 nM Fluorescein-12-ATP, then GlnK1 titrated in; 25 mM Tris pH 7.5, 100 mM NaCl, 1 mM MgCl2; details: remark: other sources report otherwise
T2 chain: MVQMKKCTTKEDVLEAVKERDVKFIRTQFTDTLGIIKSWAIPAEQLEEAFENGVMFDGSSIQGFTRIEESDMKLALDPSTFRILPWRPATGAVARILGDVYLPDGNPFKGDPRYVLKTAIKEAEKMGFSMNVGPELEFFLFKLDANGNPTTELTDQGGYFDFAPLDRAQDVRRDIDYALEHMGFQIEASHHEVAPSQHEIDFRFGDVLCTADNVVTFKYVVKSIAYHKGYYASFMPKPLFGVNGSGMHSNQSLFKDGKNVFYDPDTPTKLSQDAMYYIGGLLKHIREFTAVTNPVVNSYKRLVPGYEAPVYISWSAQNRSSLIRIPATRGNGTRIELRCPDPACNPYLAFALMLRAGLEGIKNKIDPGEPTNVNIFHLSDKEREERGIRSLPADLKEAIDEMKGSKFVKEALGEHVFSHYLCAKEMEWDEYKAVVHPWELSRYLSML

For `Nc1ncnc2c1ncn2[C@@H]1O[C@H](COP(=O)(O)OP(=O)(O)O)[C@@H](O)[C@H]1O` [ADP], the “cryo-EM structure, 2.7 A” value (Mm GS) was “In the Mm GS TS structure, the ADP is anchored into the active site pocket”.

B1: Methanosarcina mazei glutamine synthetase (enzyme)
chain: T2 chain
notes: glutamine synthetase (GS) of Methanosarcina mazei; gene bought from Genscript, in pET15b; Oligomeric state depends on concentration: dimers at 75 nM, dodecamers and partial oligomers at about 20 uM (1 mg/mL); also called Mm GS; WT Mm GS; source: E. coli C41(DE3), purified (cobalt NTA TALON)
For B1, the “stoichiometry N” value [1] was 2 and the “stoichiometry N” value [2] was 12.

B2: Mm GS(R167L-A168G) (enzyme, Methanosarcina mazei)
chain: T2 chain with R167L, A168G
notes: glutamine synthetase (GS) of Methanosarcina mazei with R167L and A168G; gene bought from Genscript, in pET15b; everywhere else R167L; also called mutant Mm GS; source: E. coli C41(DE3), purified (cobalt NTA TALON)
With B2 the “stoichiometry N” value [3] was 12.

B3: Bacillus subtilis glutamine synthetase (enzyme)
chain: AKYTREDIEKLVKEENVKYIRLQFTDILGTIKNVEIPVSQLGKALDNKVMFDGSSIEGFVRIEESDMYLYPDLNTFVIFPWTAEKGKVARFICDIYNPDGTPFEGDPRNNLKRILKEMEDLGFSDFNLGPEPEFFLFKLDEKGEPTLELNDKGGYFDLAPTDLGENCRRDIVLELEEMGFEIEASHHEVAPGQHEIDFKYAGAVRSCDDIQTFKLVVKTIARKHGLHATFMPKPLFGVNGSGMHCNLSLFKNGVNAFFDENADLQLSETAKHFIAGIVKHATSFTAVTNPTVNSYKRLVPGYEAPCYVAWSAQNRSPLIRIPASRGISTRVEVRSVDPAANPYLALSVLLAAGLDGIKNKLEAPAPIDRNIYVMSKEERMENGIVDLPATLAEALEEFKSNEVMVKALGEHLFEHFIEAKEIEWDMFRTQVHPWEREQYMSQY
notes: glutamine synthetase (GS) of Bacillus subtilis; also called Bs GS; apo Bs GS
With B3 the “stoichiometry N” value [1] was 12.

B4: Methanosarcina mazei GlnK1 (natural protein)
chain: MVAMKYVIAMIRPERLDAVKRELQKIEVSRLTVSSVSGYGAQKGYMEIYRAMEYDANLLEKIKIEIAVNDEFLEPTIEAIKTGAKGSDGYVGSGKIFVLPLENVIRIRTNETGPEAI
notes: GlnK1, PII family nitrogen regulatory protein of Methanosarcina mazei; gene bought from Genscript, in pET15b; Trimer in the crystal structure of the complex with GS; also called Mm GlnK1; WT GlnK1; source: E. coli C41(DE3), purified (cobalt NTA TALON)
B4 was tested, and the “stoichiometry N” value [4] was 3 and the Kd [5] was 6.4 µM.
